The chains are these.
B1: TPR t1 (parent)
chain: GACCAAUCUGCCCUCAGAGCUCGAGAACAUCUUCGGAUGCAGAGGAGGCAGGCUUCGGUGGCGCGAUAGCGCCAACGUCCUCAACCUCCAAUGCAUCCCACCACAUGAUGAUGCCUGAAGAGCCUUGGUUUUUUG

The variants in this series derive from B1. The series is described as follows: polymerase ribozyme fitness, log enrichment relative to wild type (log ratio); higher = more active; in vitro selection for triplet polymerase activity. Summed up: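 Each subunit of a heterodimeric triplet polymerase ribozyme was mutagenized into a library by PCR, transcribed, and subjected to one round of in vitro selection, run in triplicate. Libraries were annealed with a biotinylated primer, the partner subunit and triplets, incubated frozen at −7 °C, and extended constructs were gel-excised, captured on streptavidin beads and recovered by RT-PCR. Input and output libraries were sequenced on Illumina, keeping genotypes with ≥10 input reads and ≥1 read per output. Fitness is log base 2 of genotype enrichment divided by wild-type enrichment, from inverse-variance-weighted replicate averages.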
For C13U C20U U106A G120A, the “polymerase ribozyme fitness (log ratio)” value was -1.72.

As to A90U U106A A111U, the “polymerase ribozyme fitness (log ratio)” value is -3.8.

Turning to A5C C28A G47U C53G G93U, the “polymerase ribozyme fitness (log ratio)” value was -7.47.

Turning to G48C G60U C86A C94U U106C G117C, the “polymerase ribozyme fitness (log ratio)” value was -6.53.

For the variant A50C C123A, the “polymerase ribozyme fitness (log ratio)” value was -0.166.

As for C34U C70G C72U, the “polymerase ribozyme fitness (log ratio)” value is -7.09.

Turning to A41U G47A G110U, the “polymerase ribozyme fitness (log ratio)” value was -5.48.

Turning to C8G C79G G117U, the “polymerase ribozyme fitness (log ratio)” value was -1.37.

A6C C40U G60A C73G G107U C124U: the “polymerase ribozyme fitness (log ratio)” value is -5.46.

Take U9C C98G: the “polymerase ribozyme fitness (log ratio)” value is -5.05.

For the variant A41C G117C A121C, the “polymerase ribozyme fitness (log ratio)” value was -6.19.

As for C8G C97G, the “polymerase ribozyme fitness (log ratio)” value is -3.25.

Turning to C88G U96A, the “polymerase ribozyme fitness (log ratio)” value is -2.61.

In the case of C76G G93A C124G, the “polymerase ribozyme fitness (log ratio)” value was found to be 1.31.

Consider C88G G117A, for which the “polymerase ribozyme fitness (log ratio)” value was -2.35.

Regarding G60U C79U G93A C102A, the “polymerase ribozyme fitness (log ratio)” value is -2.44.

For C31U A66C U78G U106A C123A, the “polymerase ribozyme fitness (log ratio)” value was -2.21.

Take G52U C62U C82A C102U C123G: the “polymerase ribozyme fitness (log ratio)” value was -2.65.

As to A41U U55A, the “polymerase ribozyme fitness (log ratio)” value is -1.08.

As to A91C U112A C123A G128C, the “polymerase ribozyme fitness (log ratio)” value was -3.53.

Consider C89U U92G, for which the “polymerase ribozyme fitness (log ratio)” value was -1.82.

Take G51C U78C: the “polymerase ribozyme fitness (log ratio)” value was -4.89.

In the case of G45C C53U U78A U112C, the “polymerase ribozyme fitness (log ratio)” value was found to be 0.64.

For the variant A16U G48C U59C U126C, the “polymerase ribozyme fitness (log ratio)” value is -2.91.

A46C C89U: the “polymerase ribozyme fitness (log ratio)” value was -0.611.

For the variant C12A C62A, the “polymerase ribozyme fitness (log ratio)” value was -1.05.

G51A C124U: the “polymerase ribozyme fitness (log ratio)” value was -1.14.

With C3A C12G C56G C123U, the “polymerase ribozyme fitness (log ratio)” value is -0.749.

Turning to C13U A29U U78A C80U U96G U116G G120U G122A, the “polymerase ribozyme fitness (log ratio)” value was -5.15.

Regarding U38A G60A A121C G135U, the “polymerase ribozyme fitness (log ratio)” value is -1.36.

C12G C98A: the “polymerase ribozyme fitness (log ratio)” value is -4.17.

As to U21C G48C A90U G117C G127C, the “polymerase ribozyme fitness (log ratio)” value is -5.55.

A41G C70U U78C: the “polymerase ribozyme fitness (log ratio)” value was -0.997.

For the variant U30C G42U C76G C85A G122A C123G, the “polymerase ribozyme fitness (log ratio)” value was -4.17.

In the case of C73U G113A G117A, the “polymerase ribozyme fitness (log ratio)” value was -6.9.

In the case of G61A C79U C88A U129G, the “polymerase ribozyme fitness (log ratio)” value is -1.53.

For the variant A37U U106G C123G, the “polymerase ribozyme fitness (log ratio)” value was determined as 0.0565.

Regarding A27C A43G, the “polymerase ribozyme fitness (log ratio)” value is -5.95.

For the variant C3A G57C G71U A90U C114A U132C, the “polymerase ribozyme fitness (log ratio)” value was -2.98.

As for C31G A41U U55G G61U C86U G93C C102U G113C, the “polymerase ribozyme fitness (log ratio)” value was -6.73.

For C72U U78G, the “polymerase ribozyme fitness (log ratio)” value was -1.7.

With C8U C20A A26C G60C, the “polymerase ribozyme fitness (log ratio)” value was -5.68.

As to C49U A50U G51A, the “polymerase ribozyme fitness (log ratio)” value was -2.62.

As for U7C C13U G60A A105U, the “polymerase ribozyme fitness (log ratio)” value was -1.71.

Take C13G U14A C64U C86A: the “polymerase ribozyme fitness (log ratio)” value is -3.76.

As to C22A G60C, the “polymerase ribozyme fitness (log ratio)” value was -5.44.

G10U C98A C123A: the “polymerase ribozyme fitness (log ratio)” value is -4.36.

Consider C40A G42A G48U G58A A90G, for which the “polymerase ribozyme fitness (log ratio)” value was -2.65.

Consider A50C C70A, for which the “polymerase ribozyme fitness (log ratio)” value is -2.58.

G61A U129C: the “polymerase ribozyme fitness (log ratio)” value is 0.132.

Take C40U U54A: the “polymerase ribozyme fitness (log ratio)” value was -0.773.

In the case of U14A G17A C20G C115U, the “polymerase ribozyme fitness (log ratio)” value was -5.9.

For C3G G19A C20G C88G U112G C115U, the “polymerase ribozyme fitness (log ratio)” value is -5.61.

For the variant A26G G51U, the “polymerase ribozyme fitness (log ratio)” value is -5.11.

Consider C40U A74U A111C, for which the “polymerase ribozyme fitness (log ratio)” value is -1.01.

With A37C C79A C94U, the “polymerase ribozyme fitness (log ratio)” value is -2.07.

Take A66U U78C: the “polymerase ribozyme fitness (log ratio)” value was -0.769.

With C13A G39C C76G U106C, the “polymerase ribozyme fitness (log ratio)” value is -2.79.

As for U81A U129C, the “polymerase ribozyme fitness (log ratio)” value is -1.37.

As to C15G C40G C56A, the “polymerase ribozyme fitness (log ratio)” value was -3.88.

With A41C G107C G117A, the “polymerase ribozyme fitness (log ratio)” value was -6.25.

Consider G52U C70U U78A C101G G128A, for which the “polymerase ribozyme fitness (log ratio)” value is -3.89.

Regarding C12A C22A C40U G58C C86A U112G, the “polymerase ribozyme fitness (log ratio)” value was -5.73.

With C72A G110A U131A, the “polymerase ribozyme fitness (log ratio)” value was -0.37.

In the case of A46C C56A C73A A91U C97U, the “polymerase ribozyme fitness (log ratio)” value is -4.49.

C22U G51A G61C U109A G117C: the “polymerase ribozyme fitness (log ratio)” value was -7.16.

In the case of G25C C31G C34U A43C U112C, the “polymerase ribozyme fitness (log ratio)” value was -6.28.

For the variant U9C C80U A91G, the “polymerase ribozyme fitness (log ratio)” value was -0.111.

In the case of A95C G110A, the “polymerase ribozyme fitness (log ratio)” value is -2.49.

Turning to U21A C62U, the “polymerase ribozyme fitness (log ratio)” value was -0.421.

In the case of C11U G122A, the “polymerase ribozyme fitness (log ratio)” value is -1.12.

As for C56A C72U C104A, the “polymerase ribozyme fitness (log ratio)” value is -1.61.

Turning to A27U U54C G71U C98A U132C, the “polymerase ribozyme fitness (log ratio)” value is -6.73.

For C31G A37U C97A U116G, the “polymerase ribozyme fitness (log ratio)” value was -7.62.

With U7A G61C A91C C114A C115G, the “polymerase ribozyme fitness (log ratio)” value is -7.29.

As for G10C G36A G71A, the “polymerase ribozyme fitness (log ratio)” value is -2.47.

C80A U130C: the “polymerase ribozyme fitness (log ratio)” value is -2.51.

With A5C C8G A37U U38C A43C G57A G110A C124U, the “polymerase ribozyme fitness (log ratio)” value is -5.51.

With C49A C86A U129G, the “polymerase ribozyme fitness (log ratio)” value was -1.96.

Consider C49A U55C, for which the “polymerase ribozyme fitness (log ratio)” value is -1.24.

On to C11A U116A, for which the “polymerase ribozyme fitness (log ratio)” value is -4.

For the variant C8U G52A A68G U81A G120U, the “polymerase ribozyme fitness (log ratio)” value was -4.33.

On to C11A C124U, for which the “polymerase ribozyme fitness (log ratio)” value was found to be 0.668.

For U55C G69C C76U C89A A121U U125G, the “polymerase ribozyme fitness (log ratio)” value was -4.56.
